Where two headings read alike, the source gives them in different places.

Data set [1] has as its system athymic BALB/c nu/nu mice. As to the method: (§1) Groups of 6-8 athymic BALB/c nu/nu mice, 6 weeks of age, were first irradiated with 400 rad, and 24 hr later were inoculated s.c. with 8×10^6 Burkitt lymphoma cells (CA46 cell line). Beginning 24 hr after cell inoculation, one group (n=6) of mice received daily s.c. inoculations of buffer alone (100 μl); a second group (n=6) received daily s.c. inoculations of a fusion protein of maltose binding protein and vasostatin, MBP-vaso, alone (200 μg in 100 μl of buffer); a third group (n=8) received daily s.c. inoculations of buffer alone (100 μl) plus cyclophosphamide once on day 9 post cell inoculation (2.6 mg i.p. in 100 μl of buffer); a fourth group (n=8) received daily s.c. inoculations of vaso (200 μg in 100 μl of buffer) plus cyclophosphamide once on day 9 post cell inoculation (2.6 mg i.p. in 100 μl of buffer); a fifth group received daily s.c. inoculations of buffer alone (100 μl) plus daily i.p. inoculations of cyclophosphamide (260 μg/mouse in 100 μl of buffer); and a sixth group received daily s.c. inoculations of vaso (200 μg/mouse in 100 μl of buffer) plus daily i.p. inoculations of cyclophosphamide (260 μg/mouse in 100 μl of buffer).

Data set [2] deals with femoral marrow hematopoietic cells. As to the method: as §1
Data set [3] relates to bone marrow cells. The procedure: FIG. 2 is set of bar graphs showing of the effects of vaso on cytoxan-induced bone marrow toxicity evaluated by bone marrow cell counting. Bone marrow cells obtained from the femurs of mice treated with cytoxan alone or with vaso were counted. FIG. 2A is a bar graph of bone marrow cell counts 5 days after the injection of cytoxan (1 or 2 mg/mouse) alone or with vaso (300 μg/mouse/day). FIG. 2B is a bar graph of the bone marrow cell counts on days 3 and 5 after treatment with cytoxan (2 mg/mouse) alone or with vaso ([…]).
C57BL6J mice (7 weeks of age) were first treated for 7 days daily with either buffer (100 μl s.c.) or vaso (300 μg/mouse in 100 μl of buffer s.c.). On day 8, groups of mice (n=6) pretreated with either buffer or vaso were injected with cyclophosphamide (1.0 or 2.0 mg/mouse) and continued on daily inoculations of buffer (100 μl s.c.) or vaso (300 μg/mouse in 100 μl of buffer s.c.). Additional control mice were treated with only buffer or vaso for 5 additional days. On days 3 and 5 after cyclophosphamide injection, ½ of the mice were killed for evaluation of the bone marrow and peripheral blood.

Data set [4] relates to peripheral blood white cells. The procedure: Groups of C57BL/6 mice (8 weeks of age) were treated as described in FIG. 14. FIG. 4A is a bar graph of the bone marrow cell count from mice treated for 16 days with either buffer alone (PBS, 100 μl/mouse/day s.c), Vaso (300 μg/mouse/day s.c) alone, Cytoxan (500 μg/mouse/day i.p.) alone, or vaso (300 μg/mouse/day s.c) plus Cytoxan (500 μg/mouse/day i.p.). Bone marrow was harvested on days 9 and 17 and the number of nucleated cells were counted. FIG. 4B is a bar graph of the bone marrow cell count from mice treated with for 11 days with either buffer alone (PBS, 100 μl/mouse/day s.c), Vaso (300 μg/mouse/day s.c) alone, Cytoxan (250 μg/mouse/day i.p.)×11 days plus Cytoxan 2 mg/mouse i.p. on day 11, or Cytoxan (250 μg/mouse/day i.p.)×11 days plus Cytoxan 2 mg/mouse i.p. on day 11 plus Vaso (300 μg/mouse/day s.c, days 1-16). Bone marrow cell counts were obtained on day 17. FIG. 4C is a bar graph of peripheral blood white cells counts (WBC) on day 17 from mice from the same treatment groups described in B.
FIG. 14 is a schematic diagram of different treatment groups used in the studies described herein. • Group 1: Buffer alone (100 μl/mouse/day s.c)×16 days • Group 2: Vaso alone (300 μg/mouse/day s.c)×16 days • Group 3: Cyclophosphamide (500 μg/mouse/day i.p.)×16 days Group 4: Cyclophosphamide (500 μg/mouse/day i.p.)×16 days plus vaso (300 μg/mouse/day s.c)×16 days Group 5: Cyclophosphamide (250 μg/mouse/day i.p.)×11 days plus Cyclophosphamide 2 mg/mouse i.p. on day 11 Group 6: Cyclophosphamide (250 μg/mouse/day i.p.)×11 days plus Cyclophosphamide 2 mg/mouse i.p. on day 11 plus vaso (300 μg/mouse/day s.c) days 1-16.
In addition, rather than treating the mice with vaso prior to toxin exposure as described above, mice were simultaneously inoculated with cyclophosphamide and vaso. Thus, groups of mice (n=6) received either buffer alone (100 μl s.c) daily for 16 days, vaso (300 μg/mouse s.c) alone daily for 16 days, cyclophosphamide (500 μg/mouse i.p.) either alone or together with vaso (300 μg/mouse s.c) for 16 days. Other groups of mice (n=6) were inoculated daily for 11 days with cyclophosphamide (250 μg/mouse i.p.) either alone or together with vaso (300 μg/mouse s.c).

In data set [5] the test system is peripheral blood white cells. As to the method:
Groups of mice (C57BL/B6, 6 weeks old, 10 mice/group) were treated for 4 days with either buffer (PBS, 100 μl/mouse/day), native vaso (200 μg/mouse/day s.c) or denatured vaso ([…]). On day 5, some of the animals were treated with cytoxan and the original treatment with buffer, native or denatured vaso was continued. On day 9 (5 days after one half of the mice had received cytoxan), peripheral blood white cell counts were measured.
To examine whether the effects of vaso on the hematopoietic system are attributable to the native protein, the effects of native vaso were compared with the effects of vaso that had been denatured by boiling. Groups of mice (n=10) were treated for 4 days with either buffer (100 μl/mouse s.c); native vaso (200 μg/mouse/day s.c); or denatured vaso (300 μg/mouse/day s.c). On day 5, some of the mice were injected with cyclophosphamide (2 mg/mouse/i.p.) and treatment continued with either buffer, native vaso or denatured vaso. The experiment was terminated on day […], at which time peripheral blood counts were measured.
The source holds these as a separate data set.

The mark [6] stands for this setting: same dose and regimen of cyclophosphamide plus vaso.

For `O=P1(N(CCCl)CCCl)NCCCO1` (stereo not shown) [cyclophosphamide, reference compound], the “mice alive on day 28” value in data set [1] (cyclophosphamide 260 μg/mouse i.p. daily for 26 days, alone) is 8/8. Further, the “mice alive on day 26” value in data set [1] (cyclophosphamide 2.6 mg i.p. once on day 9 alone (daily buffer s.c.), 400 rad, CA46-inoculated, n=8) was 0/8. Besides, in data set [1] (cyclophosphamide 2.6 mg i.p. once on day 9 alone, n=8), the “mice dead on day 13” value is recorded as 7 out of 8. Besides, in data set [2] (cyclophosphamide only (260 μg/day, 26 days)), the “histological appearance of femoral marrow” value is “hypocellular and virtually depleted of hematopoietic cells”. Besides, the “bone marrow cellularity 5 days after cyclophosphamide” value in data set [3] (cyclophosphamide 2 mg/mouse alone, vs control untreated mice) is recorded as “clear reduction in cellularity”. Further, the “marrow cell counts 5 days after cyclophosphamide” value in data set [3] (cyclophosphamide 1.0 or 2.0 mg/mouse, alone) was “reduced significantly marrow cell counts”. In data set [4] (cyclophosphamide 250 μg/mouse daily for 11 days then 2 mg/mouse on day 12, alone, vs untreated controls), the “peripheral white blood cell counts on day 17” value was “reduction in white blood cell counts”. Moreover, the “average percent neutrophils on day 17” value in data set [4] (cyclophosphamide 250 μg/mouse daily for 11 days then 2 mg/mouse on day 12, alone, controls 10-17%) was found to be 13.4%. Moreover, the “average percent lymphocytes on day 17” value in data set [4] (cyclophosphamide 250 μg/mouse daily for 11 days then 2 mg/mouse on day 12, alone, controls 72-83%) is on record as 62%. Further, the “peripheral blood white cell counts” value in data set [5] (cyclophosphamide 2 mg/mouse i.p. with buffer, vs buffer-only controls) is given as “markedly reduced”.

B1: vaso: N-terminal domain of calreticulin (amino acids 1-180, SEQ ID NO:3); given as fusion protein with maltose binding protein, MBP-vaso (protein)
chain: EPAVYFKEQFLDGDGWTSRWIESKHKSDFGKFVLSSGKFYGDEEKDKGLQTSQDARFYALSASFEPFSNKGQTLVVQFTVKHEQNIDCGGGYVKLFPNSLDQTDMHGDSEYNIMFGPDICGPGTKKVHVIFNYKGKNVLINKDIRCKDDEFTHLYTLIVRPDNTYEVKIDNSQVESGSLE
modifications: Vasostatin
For the molecule B1, the “mice alive on day 28” value in data set [1] (cyclophosphamide 260 μg/mouse i.p. daily in conjunction with vasostatin 200 μg/mouse s.c. daily) is listed as 8/8. For the same molecule, the “gross and microscopic examination of liver, spleen, kidneys, heart, lung, lymph nodes and bone marrow” value in data set [1] (surviving mice, high dose cyclophosphamide plus vaso, day 26) is “No abnormalities were noted”. Besides, the “mice alive and well on day 26” value in data set [1] (vaso 200 μg s.c. daily plus cyclophosphamide 2.6 mg i.p. once on day 9, n=8, p<0.0001 vs cyclophosphamide alone) is listed as 8/8. In addition, the “mice alive and well on day 28” value in data set [1] (vasostatin alone 200 μg s.c. daily) is reported as 6/6. Besides, the “histological appearance of femoral marrow” value in data set [2] (cyclophosphamide 260 μg/day plus vasostatin 200 μg/day, 26 days) is recorded as “indistinguishable from a normal control marrow”. Further, the “bone marrow cellularity 5 days after cyclophosphamide” value in data set [3] (cyclophosphamide 2 mg/mouse in conjunction with vasostatin) is on record as “indistinguishable from that of control mice”. For the same molecule, the “nadir in bone marrow counts on day 3 after cyclophosphamide” value in data set [3] (cyclophosphamide 2 mg/mouse with vaso 300 μg/mouse/day) was “reduced the severity of this nadir”. In addition, in data set [3] (cyclophosphamide 1.0 or 2.0 mg/mouse together with vaso 300 μg/mouse/day s.c.), the “bone marrow cell counts 5 days after cyclophosphamide” value is on record as “the reduction in bone marrow cell counts was minimal”. Further, in data set [4] (setting [6]), the “average percent lymphocytes on day 17” value is reported as 25% and the “average percent neutrophils on day 17” value is given as 63%. In addition, in data set [4] (vaso in conjunction with cyclophosphamide 250 μg/mouse daily for 11 days then 2 mg/mouse), the “white blood cells in the circulation on day 17” value was “significantly greater number of white blood cells”. For the same molecule, the “peripheral blood white cell counts after cyclophosphamide (alleviation of toxicity)” value in data set [5] (cyclophosphamide 2 mg/mouse i.p. plus native vaso 200 μg/mouse/day s.c. or denatured vaso 300 μg/mouse/day s.c.) is “minimally different from those of the control mice”.

Source of the values: patent publication US7812117B2, “Vasostatin as marrow protectant” (The United States of America as represented by the …, priority 1998, dated 2010).
